# Tested on: STAT6
# Experiment: Screening of full-length cDNA clones for promotion of STAT6 activation (luciferase reporter N4×8-luc)
# Assay type: cell-based
# Conditions: NIH3T3 cells cotransfected with N4×8-luc reporter and cDNA plasmid; 48 h culture, then mouse IL-4 0.5 ng/ml for 6 h
# In short: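 NIH3T3 cells cotransfected with STAT6-responsive N4×8-luc reporter (100 ng) and full-length cDNA, cultured 48 h, then given mouse IL-4 at 0.5 ng/ml final for 6 h. Luciferase activity compared with reporter plus null-vector control.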
row,Molecule,Activity = (luciferase activity of the gene of each SEQ ID NO:)/(luciferase activity of pME18S-FL3)
1,"85 (nucleic acid, listed as Homo sapiens, CDS (33)..(1409)) ATTTCCGGTTCCGGCTGCGGGCCGGTGAAGATATGGCGGCGTCTGCGTCTGCAGCTGCAGGGGAGGAGGACTGGGTCCTTCCCTCTGAAGTTGAAGTATTGGAGTCCATCTATCTAGATGAACTACAGGTGATTAAAGGAAATGGCAGAACTTCACCATGGGAGATCTACATCACTTTGCATCCTGCCACTGCAGAGGACCAGGATTCACAGTATGTCTGCTTCACTCTGGTGCTTCAGGTCCCAGCAGAGTATCCCCATGAGGTGCCACAGATCTCTATCCGAAATCCCCGAGGACTTTCAGATGAACAGATCCACACGATCTTACAGGTGCTGGGCCACGTGGCCAAGGCTGGGCTGGGCACTGCCATGCTGTATGAACTCATTGAGAAAGGGAAGGAAATTCTCACAGATAACAACATCCCTCATGGCCAGTGTGTCATCTGCCTCTATGGTTTCCAGGAGAAGGAGGCCTTTACCAAAACACCCTGTTACCACTACTTCCACTGCCACTGCCTTGCTCGGTACATCCAGCACATGGAGCAAGAGCTGAAGGCACAAGGACAGGAGCAGGAACAGGAACGGCAGCATGCTACAACCAAACAGAAGGCAGTCGGTGTGCAGTGTCCAGTGTGCAGAGAGCCCCTCGTGTATGATCTTGCCTCACTGAAAGCAGCCCCTGAACCCCAACAGCCCATGGAGCTGTACCAGCCCAGTGCAGAGAGCTTGCGCCAGCAAGAAGAACGCAAGCGGCTCTACCAGAGGCAGCAGGAGCGGGGGGGAATCATTGACCTTGAGGCTGAGCGAAACCGATACTTCATCAGCCTTCAGCAGCCTCCTGCCCCTGCGGAACCTGAGTCAGCTGTAGATGTCTCCAAAGGATCCCAACCACCCAGCACCCTTGCAGCAGAACTATCCACCTCACCAGCCGTCCAATCCACTTTGCCACCTCCTCTGCCTGTGGCGACCCAGCACATATGTGAGAAGATTCCAGGGACCAGGTCAAATCAGCAAAGGTTGGGCGAAACCCAGAAAGCTATGCTAGATCCCCCCAAGCCCAGTCGAGGTCCCTGGCGACAGCCCGAACGGAGGCACCCAAAGGGAGGGGAGTGCCACGCCCCTAAAGGTACCCGTGACACCCAGGAACTGCCACCTCCTGAGGGGCCCCTCAAGGAGCCCATGGACCTAAAGCCAGAACCCCATAGCCAAGGAGTTGAAGGTCCTCCACAAGAGAAGGGGCCTGGCAGCTGGCAGGGGCCCCCACCCCGCAGGACTCGGGACTGTGTTCGCTGGGAGCGCTCTAAGGGCCGGACACCCGGTTCTTCCTACCCTCGCCTGCCTCGGGGCCAGGGAGCATACCGGCCTGGTACTCGGAGGGAGTCCCTGGGCCTGGAATCTAAGGATGGTTCCTAGCAGGACTTGGTGGGGGGAACAGGGAATTGGGGATGGGAGGGAGGCAATAAAGATATTTGGCCTTCTTTGGCTTTCTTTGCTT",11.5
2,"89 (nucleic acid, listed as Homo sapiens, CDS (22)..(834)) GTAGTGCGGCGCTGTTTAAAGATGGCGGCGGAGGAACCTCAGCAGCAGAAGCAGGAGCCGCTGGGCAGCGACTCCGAAGGTGTTAACTGTCTGGCCTATGATGAAGCCATCATGGCTCAGCAGGACCGAATTCAGCAAGAGATTGCTGTGCAGAACCCTCTGGTGTCAGAGCGGCTGGAGCTCTCGGTCCTATACAAGGAGTATGCTGAAGATGACAACATCTATCAACAGAAGATCAAGGACCTCCACAAAAAGTACTCGTACATCCGCAAGACCAGGCCTGACGGCAACTGTTTCTATCGGGCTTTCGGATTCTCCCACTTGGAGGCACTGCTGGATGACAGCAAGGAGTTGCAGCGGTTCAAGGCTGTGTCTGCCAAGAGCAAGGAAGACCTGGTGTCCCAGGGCTTCACTGAATTCACAATTGAGGATTTCCACAACACGTTCATGGACCTGATTGAGCAGGTGGAGAAGCAGACCTCTGTCGCCGACCTGCTGGCCTCCTTCAATGACCAGAGCACCTCCGACTACCTTGTGGTCTACCTGCGGCTGCTCACCTCGGGCTACCTGCAGCGCGAGAGCAAGTTCTTCGAGCACTTCATCGAGGGTGGACGGACTGTCAAGGAGTTCTGCCAGCAGGAGGTGGAGCCCATGTGCAAGGAGAGCGACCACATCCACATCATTGCGCTGGCCCAGGCCCTCAGCGTATCCATCCAGGTGGAGTACATGGACCGCGGCGAGGGCGGCACCACCAATCCGCACATCTTCCCTGAGGGCTCCGAGCCCAAGGTCTACCTTCTCTACCGGCCTGGACACTACGATATCCTCTACAAATAGGGCTGGCTCCAGCCCGCTGCTGCCCTGCTGCCCCCCTCTGCCAGGCGCTAGACATGTACAGAGGTTTTTCTGTGGTTGTAAATGGTCCTATTTCACCCCCTTCTTCCTGTCACATGACCCCCCCCCATGTTTTATTAAAGGGGGTGCTGGTGGTG",10.2
3,"327 (nucleic acid, listed as Homo sapiens, CDS (72)..(1046)) TGTCGACGCCGCTGCCACCGCCTGCCTGAGAGAAGTCGTCGCGGCCGACCCCGTCGCCTCCGCCGGCTACCATGTCCGCCCAGGCGCAGATGCGGGCCCTGCTGGACCAGCTCATGGGCACGGCTCGGGACGGAGACGAAACCAGACAAAGGGTCAAGTTTACAGATGACCGTGTCTGCAAGAGTCACCTTCTGGACTGCTGCCCCCATGACATCCTGGCTGGGACGCGCATGGATTTAGGAGAATGTACCAAAATCCACGACTTGGCCCTCCGAGCAGATTATGAGATTGCAAGTAAAGAAAGAGACCTGTTTTTTGAATTAGATGCAATGGATCACTTGGAGTCCTTTATTGCTGAATGTGATCGGAGAACTGAGCTCGCCAAGAAGCGGCTGGCAGAAACACAGGAGGAAATCAGTGCGGAAGTTTCTGCAAAGGCAGAAAAAGTACATGAGTTAAATGAAGAAATAGGAAAACTCCTTGCTAAAGCCGAACAGCTAGGGGCTGAAGGTAATGTGGATGAATCCCAGAAGATTCTTATGGAAGTGGAAAAAGTTCGTGCGAAGAAAAAAGAAGCTGAGGAAGAATACAGAAATTCCATGCCTGCATCCAGTTTTCAGCAGCAAAAGCTGCGTGTCTGCGAGGTCTGTTCAGCCTACCTTGGTCTCCATGACAATGACCGTCGCCTGGCAGACCACTTCGGTGGCAAGTTACACTTGGGGTTCATTCAGATCCGAGAGAAGCTTGATCAGTTGAGGAAAACTGTCGCTGAAAAGCAGGAGAAGAGAAATCAGGATCGCTTGAGGAGGAGAGAGGAGAGGGAACGGGAGGAGCGTCTGAGCAGGAGGTCGGGATCAAGAACCAGAGATCGCAGGAGGTCACGCTCCCGGGATCGGCGTCGGAGGCGGTCAAGATCTACCTCCCGAGAGCGACGGAAATTGTCCCGGTCCCGGTCCCGAGATAGACATCGGCGCCACCGCAGCCGTTCCCGGAGCCACAGCCGGGGACATCGTCGGGCTTCCCGGGACCGAAGTGCGAAATACAAGTAACTACTCTGACTCCTTCGGTAGCTGCAACCAGGGGTTCTCCAGAGAGCGGGCATCCAGAGAGGAGTCCTGGGAGAGCGGGCGGAGCGAGCGAGGGCCCCCGGACTGGAGGCTTGAGAGCTCCAACGGGAAGATGGCTTCACGGAGGTCAGAAGAGAAGGAGGCCGGCGAGATCTGAACCCGTCTCCCGGGTGCTGTAAATAGTCTGATAAACGTTCACACAGTCTAAAATTACCCTTTATATTTGCTGAATACAACTCATCTTTTGTAGTTTAAAATTTCTATTGTTTTGGAGCTAGCTGTGAGTTTCTAGAAGTGTACAGAGTTGCTCCTGTGTTCCCGGGTCATGTTGAGTAGGAATAAATAAATCTGATGCTGCCTCCTGAGGCTGCGGGGGGTTTCTGC",5.3
